The values below come from paper PMC9418327.

The target of the series is Dfd (Deformed);Exd (Extradenticle) (Drosophila melanogaster?;Drosophila melanogaster?) (UniProt P07548+P40427). Briefly: EMSA. The following applies: class 2 site printed as 9.1 mM in same passage; assay source not fully shown; 20 mM HEPES pH 7.9, 1.4 mM MgCl2, 1 mM ZnSO4, 40 mM KCl, 0.1 mM EGTA, 5% glycerol, 10 mM DTT, 0.1% NP40, 200 ng poly(dI-dC), 3 ug BSA, 2 pmol Cy5 dsDNA in …. (In general: In EMSA bound probe runs differently from free probe, usually more slowly.)
Dfd (Deformed);Exd (Extradenticle) (Drosophila melanogaster?;Drosophila melanogaster?), sequence (P07548 whole entry, chain 1 of 2): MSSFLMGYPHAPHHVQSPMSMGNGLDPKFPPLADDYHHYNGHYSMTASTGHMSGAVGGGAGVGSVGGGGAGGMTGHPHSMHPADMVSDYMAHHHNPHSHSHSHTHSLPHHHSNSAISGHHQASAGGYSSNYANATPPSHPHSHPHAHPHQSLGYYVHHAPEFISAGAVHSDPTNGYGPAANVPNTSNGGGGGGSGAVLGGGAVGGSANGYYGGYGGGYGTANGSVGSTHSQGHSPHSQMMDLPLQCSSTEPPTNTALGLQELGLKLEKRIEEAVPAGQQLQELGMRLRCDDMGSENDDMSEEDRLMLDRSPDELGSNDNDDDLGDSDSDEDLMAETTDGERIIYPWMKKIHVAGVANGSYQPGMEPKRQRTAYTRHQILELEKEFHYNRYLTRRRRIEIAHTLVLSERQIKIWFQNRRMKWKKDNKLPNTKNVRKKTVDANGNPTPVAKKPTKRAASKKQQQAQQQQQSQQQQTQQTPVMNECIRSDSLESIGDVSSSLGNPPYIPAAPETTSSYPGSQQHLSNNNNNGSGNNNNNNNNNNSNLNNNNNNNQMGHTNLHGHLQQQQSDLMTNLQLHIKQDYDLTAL
Dfd (Deformed);Exd (Extradenticle) (Drosophila melanogaster?;Drosophila melanogaster?), sequence (P40427 whole entry, chain 2 of 2): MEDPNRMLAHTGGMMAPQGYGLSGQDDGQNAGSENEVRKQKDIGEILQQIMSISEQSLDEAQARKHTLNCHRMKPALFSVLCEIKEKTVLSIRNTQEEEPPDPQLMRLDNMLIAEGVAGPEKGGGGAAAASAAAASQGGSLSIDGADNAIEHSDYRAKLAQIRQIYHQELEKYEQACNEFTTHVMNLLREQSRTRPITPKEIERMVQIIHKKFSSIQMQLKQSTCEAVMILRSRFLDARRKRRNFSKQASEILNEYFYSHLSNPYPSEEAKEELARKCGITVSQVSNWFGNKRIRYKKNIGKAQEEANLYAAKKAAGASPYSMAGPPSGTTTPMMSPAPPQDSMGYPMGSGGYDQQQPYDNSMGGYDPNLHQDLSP

modC enhancer site I yielded a Kd (mM (so in the source); probably nM)) of 5.5.
